Data on 2 molecules can be found in patent US8088892B2, “Inhibitors of proteins from the Rho-GEF family” (Centre National de la Recherche Scientifique (C.N.R.S.), priority 2002, dated 2012).

One experiment deals with T1, control GEF (GEF720) (Homo sapiens, UniProt O94827).
T1 construct: expressed in transfected cells; host or cells: yeast strain TAT7
T1 sequence (O94827 1-1006): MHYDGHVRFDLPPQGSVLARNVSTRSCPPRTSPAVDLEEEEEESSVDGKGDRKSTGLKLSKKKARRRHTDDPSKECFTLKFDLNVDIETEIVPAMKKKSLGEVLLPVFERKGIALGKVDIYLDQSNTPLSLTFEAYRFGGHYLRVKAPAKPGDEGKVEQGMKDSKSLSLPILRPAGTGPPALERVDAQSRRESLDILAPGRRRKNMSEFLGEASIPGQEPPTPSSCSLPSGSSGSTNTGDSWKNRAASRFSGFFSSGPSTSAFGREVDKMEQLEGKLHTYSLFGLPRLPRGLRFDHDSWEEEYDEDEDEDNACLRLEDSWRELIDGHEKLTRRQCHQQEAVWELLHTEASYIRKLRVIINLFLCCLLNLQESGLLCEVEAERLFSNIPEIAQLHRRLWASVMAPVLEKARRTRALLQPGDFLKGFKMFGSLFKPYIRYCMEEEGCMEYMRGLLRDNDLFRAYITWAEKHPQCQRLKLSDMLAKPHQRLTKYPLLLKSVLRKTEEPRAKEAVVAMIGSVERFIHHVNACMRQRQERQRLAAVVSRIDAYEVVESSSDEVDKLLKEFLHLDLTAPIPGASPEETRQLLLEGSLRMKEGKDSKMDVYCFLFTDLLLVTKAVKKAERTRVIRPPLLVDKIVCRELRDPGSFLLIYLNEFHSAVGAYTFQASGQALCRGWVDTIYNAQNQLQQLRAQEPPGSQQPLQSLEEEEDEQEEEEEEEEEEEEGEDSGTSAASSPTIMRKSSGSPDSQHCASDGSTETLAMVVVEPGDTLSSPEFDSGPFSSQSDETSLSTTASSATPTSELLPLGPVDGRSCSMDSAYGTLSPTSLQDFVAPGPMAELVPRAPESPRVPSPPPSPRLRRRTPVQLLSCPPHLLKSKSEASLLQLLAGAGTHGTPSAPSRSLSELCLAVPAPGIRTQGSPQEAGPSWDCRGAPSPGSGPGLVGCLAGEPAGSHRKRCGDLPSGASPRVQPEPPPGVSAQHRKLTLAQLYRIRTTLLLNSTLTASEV
The experiment is described as follows: Yeast Exchange Assay (YEA), RhoA activation. Format: cell-based. To be noted: yeast strain TAT7, reporter gene. The text has this: The wild type GTPase is fused to the LexA DNA binding domain (Matchmaker GAL4 two-hybrid, Clontech Laboratories, Inc., USA) and the effector to the […] (Matchmaker GAL4 two-hybrid, Clontech, Inc., USA). Under these conditions, no binding occurs in the TAT7 strain (De Toledo et al., 2000). Upon addition of a third plasmid expressing the GEF, the GTPase gets activated and binds to its effector, thus leading to the transactivation of the reporter gene LacZ.
TrioGEFD2, a control GEF (GEF720) or an empty vector (−GEF: corresponds to a vector without GEF) were introduced into the YEA system and analysed for their ability to transactivate the reporter gene in absence (left panel) or in the presence (right panel) of TRIPα.
In order to better characterise the effect of TRIAPα on the Trio full length RhoGEF activity, the yeast exchange assay (YEA) was used, which is a quick and quantitative test derived from the classical two-hybrid system allowing to measure Rho-GEF activity and specificity (De Toledo et al., 2000). This functional assay is based on the fact that the GTPase binds to its effector only if it is activated by a RhoGEF. Briefly, yeasts are transformed with the GTPase fused to the LexA binding domain (LexA), and its effector to the GAL-4 Activating Domain (GAD), and with the adequate Rho-GEF partner in the yeast strain TAT7 (FIG. 7). […]
In general terms: In a reporter assay the amount or activity of a reporter protein is the signal.

A further experiment concerns the target T2, Dbl (Homo sapiens, UniProt P10911).
T2 construct: Dbl (a.a. 498-826); expressed in transfected cells; host or cells: yeast
T2 sequence (P10911 498-826): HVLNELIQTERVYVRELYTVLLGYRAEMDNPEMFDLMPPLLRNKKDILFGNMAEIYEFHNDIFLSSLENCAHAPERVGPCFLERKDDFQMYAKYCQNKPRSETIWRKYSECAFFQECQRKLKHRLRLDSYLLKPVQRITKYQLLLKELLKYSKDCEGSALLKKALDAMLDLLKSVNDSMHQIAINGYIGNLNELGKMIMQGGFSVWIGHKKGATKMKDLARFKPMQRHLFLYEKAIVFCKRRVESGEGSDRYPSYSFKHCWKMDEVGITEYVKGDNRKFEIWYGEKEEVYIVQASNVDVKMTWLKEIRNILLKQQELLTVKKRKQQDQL
The experiment is described as follows: Binding specificity of aptamers in yeast. More on the design: key: +++^1 and +^1 represent respectively a full and a partial (see FIG. 1) binding capacity; +++^1 and +^1 represent respectively a full and a partial (see FIG. 1) binding capacity; −−^1 represents a lack of binding. To be noted: RhoGEF Dbl. The text has this:
Trx represents the thioredoxin protein with no inserted peptide.
In order to identify specific inhibitors of TrioGEFD2, a recently developed strategy was used, this strategy being derived from the yeast two hybrid system, where the cDNA library of preys has been replaced by a combinatorial library of short peptides (20 amino acids) in fusion with the bacterial protein thioredoxin A (Colas et al., 1996). This strategy has been successfully used to isolate specific inhibitors of the cyclin-dependent kinases (Cdks), the cell cycle transcription factor E2F, or the viral HPV16 E6 oncoprotein and HBEV core protein (Colas et al., 1996; Butz et al., 2001; Fabrizzio et al., 1999; Geyer et al., 2000). The TrioGEFD2 bait was constructed as follows: plasmid pMTHATrio1848-2298 (Bellanger et al., 1998) was digested with EcoRI/XhoI and the insert cloned in pEG202EcoRI/XhoI to generate the bait pEG202TroGEFD2. Yeast strain EGY048 (Colas et al., 1996) was transformed with pEG202TrioGEFD2 and subsequently with the library of Thioredoxin constrained aptamers according to standard procedures (Ito et al., 1983). After transformation, cells were allowed to recover for 4 hours in galactose containing medium before plating on selective galactose medium. Of the 2×10^6 screened colonies, those growing in the selective medium were recovered and retested for interaction. […] Binding specificity was investigated by screening for interaction with the following baits: TrioDH2 (a.a. 1848-2096), TrioPH2 (a.a. 2107-2223), TrioGEFD1 (a.a. 1232-1629), Dbl (a.a. 498-826), Vav (ala. 172-598) (Zhang et al, 1994), GEFD2 domain of Kalirin (a.a. 1640-1980)(Penzes et al., 2001), p115RhoGEF (a.a. 391-870)(Wells et al, 2002) and PDZRhoGEF (a.a. 964-1362) (Fukuhara et al., 1999). None of these aptamers interacted with other RhoGEF members such as Dbl, Vav, and the RhoA-specific GEFs p115RhoGEF and PDZRhoGEF.

Regarding “AREGADGAICGYNLATLVMLGPSERVFCPLCEPCSSDIYELM [TRIPα, 42-amino acid peptide corresponding to the variable region of TRIAPα]”, the “Effect on control GEF (GEF720) in the YEA system” value with control GEF (GEF720) is reported as “the control GEF is unaffected”.

B1: TRIAPα: aptamer of 154 amino acids: variable region of 42 amino acids inserted into the thioredoxin protein; tested as GST fusion (protein)
chain: MSDKIIHLTDDSFDTDVLKADGAILVDFWAEWCGPAREGADGAICGYNLATLVMLGPSERVFCPLCEPCSSDIYELMGPCKMIAPILDEIADEYQGKLTVAKLNIDQNPGTAPKYGIRGIPTLLLFKNGEVASATKVGALSKGQLKEFLDANLA
As for B1, the Binding in yeast entry with Dbl is reported as “−−^1”.
